Reference: patent US7985404B1, “Reducing hair growth, hair follicle and hair shaft size and hair pigmentation” (Johnson & Johnson Consumer Companies, Inc., priority 1999, dated 2011)

B1: BBI: soybean-derived serine protease inhibitor protein from Sigma-Aldrich, used in PBS-liposome vehicle (protein, UniProt P01055 40-110, looked up)
Bowman-Birk type proteinase …: DDESSKPCCDQCACTKSNPPQCRCSDMRLNSCHSACKSCICALSYPAQCFCVDITDFCYEPCKPSEDDKEN
B2: STI: soybean-derived serine protease inhibitor protein from Sigma-Aldrich, used in PBS-liposome vehicle (protein, UniProt P01070 25-205, looked up)
Trypsin inhibitor A: DFVLDNEGNPLENGGTYYILSDITAFGGIRAAPTGNERCPLTVVQSRNELDKGIGTIISSPYRIRFIAEGHPLSLKFDSFAVIMLCVGIPTEWSVVEDLPEGPAVKIGENKDAMDGWFRLERVSDDEFNNYKLVFCPQQAEDDKCGDIGISIDHDDGTRRLVVSKNKPLVVQFQKLDKESL

Tests used:
[1] = tested on: C3H mice; assay: Depilation-induced hair cycle in C3H mice, daily topical treatment; format: in vivo, mouse; settings: for hair follicle histology: 1%, day seven of the hair cycle; for hair follicle histology / effect on hair growth and pigmentation: PBS-liposome vehicle; for effect on hair growth and pigmentation: high concentrations; for hair growth, follicle and shaft size, visual observation throughout the hair cycle: in PBS-liposome vehicle (FIG. 9)
Source text: (§1) C57BI/6 or C3H mice (male and female) were obtained from Charles River (Kingston, NY), at 8-10 weeks of age and were in the resting (telogen) phase of their respective hair cycle. Hair growth was induced by wax depilation (plucking) of each respective animal's back fur according to the procedure set forth in Stenn, et al., “Glucocorticoid Effect on Hair Growth Initiation: A Reconsideration,” 6 Skin Pharmacol., 125-134 (1993). In C57Bl/6 and C3H mice, 8-10 weeks old, the growth phase (anagen) starts synchronously in all hair follicles at the time of depilation.
(§2) Since the murine hair cycle varies not only between strains, but also amongst individual animals, the status of the hair cycle was analyzed in each animal on study. A 2 cm by 1 cm skin sample was isolated from each mouse with scissors, fixed with a 10% buffered formalin solution having a pH of about 6.9-7.1 at 25° C. (Stephens Scientific), and then formed into a paraffin block according to well-known procedures. The block was then microtomed, and sections were stained with H&E or Fontana-Mason stain. Sections were examined histologically in order to verify the phase of the hair cycle, the size of the hair follicle and hair shaft and the level of hair pigmentation, using procedures well known in the art. Hair length was assessed visually, and by using a low magnification (×8) dissecting microscope.
In order to verify that the effect of soymilk on hair growth is not specific to C57Bl/6 mice, we repeated the experiment described in Example 4 using the brown haired (Agouti) C3H mice. The results of these experiments were similar both visually and histologically.

[2] = tested on: C57Bl/6 mice; assay: Depilation-induced hair cycle in C57Bl/6 mice, daily topical treatment; format: in vivo, mouse; settings: day eight of the hair cycle (FIG. 10), PBS-liposome vehicle
Source text: as §1
as §2, with “microscope. […]” for “microscope.”

[3] = tested on: trypsin; assay: Enzchek protease digestion fluorescent assay with trypsin; format: biochemical; settings: 100 units of trypsin; increasing concentrations / serial dilutions
Procedure: In order to support the hypothesis that STI and BBI in soymilk are involved in the hair growth effects described above, we tested soymilk for its serine protease inhibitory activity. An enzymatic assay was performed using “Enzchek”, a protease digestion fluorescent test system made by Molecular Probes of Eugene, Oreg. Using 100 units of trypsin (from Sigma chemicals, St. Louis Mo.) the test system produced fluorescence reading of about 1100 units. This reaction was inhibited with increasing concentrations of STI, as expected from a known trypsin inhibitor.

Row | Molecule | hair follicle histology [1] | effect on hair growth and pigmentation [1] | hair growth, follicle and shaft size, visual observation throughout the hair cycle [1] | hair follicle histology [2] | inhibition of trypsin reaction [3]
1 | B1 | reduce hair follicle and hair shaft size and hair shaft pigmentation | substantial | could delay hair growth and reduce hair follicle and hair shaft size | smaller and less pigmented follicles | –
2 | B2 | reduce hair follicle and hair shaft size and hair shaft pigmentation | substantial | could delay hair growth and reduce hair follicle and hair shaft size | smaller and less pigmented follicles | inhibited
